Laboratory results reported in article PMC4456216.

What was measured:
Experiment in all cases: ITC
[1] = target: BMAL1 TAD S605N L606Y (mouse)
[2] = target: BMAL1 TAD V602A I603F (mouse)
[3] = target: BMAL1 transactivation domain (TAD), residues 579-626 (mouse)

Sequence of mouse CBP KIX domain (P45481 586-665): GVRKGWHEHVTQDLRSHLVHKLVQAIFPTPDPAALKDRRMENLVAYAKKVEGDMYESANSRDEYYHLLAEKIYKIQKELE

Substance: mouse CBP KIX domain (from UniProt P45481 586-665) (domain or fragment)
- stoichiometry N [1]: 1.06
- stoichiometry N [2]: 0.82
- stoichiometry N [3]: 0.74
